Results published in patent publication US20160009800A1 (XOMA US, published 2016).

B1: Ab037 (antibody, V domains shown)
VH: EVQLLESGGGLVQPGGSLRLSCAASGFTFSSYEMNWVRQAPGKGLEWVSSISSSSRYADVANSVVGRFTISRDNSKNTLYLQMNSLRAEDTAVYYCARGEWLDHFDYWGQGTLVTVSS
VL: QSVLTQPPSASGTPGQRVTISCSGSSSNIGNSAVNWYQQLPGTAPKLLIYDNNKRPSGVPDRFSGSKSGTSASLAISGLRSEDEADYYCQVWDSGTAVFGGGTKLTVLG
notes: Partial allosteric agonist; also called XPA.015.048
B2: Ab073 (antibody, IgG2, V domains shown)
VH: QVQLQESGPGLVKPSGTLSLTCAVSGGSISSSNWWSWVRQPPGKGLEWIGEIYHSGSTNYNPSLKSRVTISVDKSKNQFSLKLSSVTAADTAVYYCARVGAAAAWFDPWGQGTLVTVSS
VL: QSVLTQPPSVSAAAGQKVTISCSGSSSNIGNNYVTWYQHVPGTAPKLLIFDNDKRPSGIPDRFSGSKSGTSATLAITGLQTGDEADYYCGTWDSSLNPLFGGSTQLTVL
notes: also called XPA.015.229
B3: Ab075 (antibody, IgG2, V domains shown)
VH: EVQLVETGGGVVQPGRSLRLSCAASGFSFSSYDMYWVRQAPGKGLEWVAVISYDGNDKQYADSVKGRFTISRDNSKRTLYLQMDSLRTEDTATYYCTREGNGREIDYWGPGTLVTVSS
VL: QSVLTQPPSVSAAPGQKVTISCSGSSSNIGNNYVTWYQHVPGTAPKLLIFDNDKRPSGIPDRFSGSKSGTSATLAITGLQTGDEADYYCGTWDSSLNPLFGGGTQLTVL
notes: also called XPA.015.232
B4: Ab083 (antibody, IgG2, V domains shown)
VH: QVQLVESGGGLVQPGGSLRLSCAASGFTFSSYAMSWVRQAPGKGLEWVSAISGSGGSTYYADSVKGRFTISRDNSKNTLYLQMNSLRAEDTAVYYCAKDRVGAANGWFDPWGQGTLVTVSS
VL: AIQLTQSPSSLSASVGDRVTISCRASQSITSYLNWYQQKPGKAPNLLIYAASSLQSGVPSRFSGSGSGTDFTLTIAGLQPEDFATYYCQQFDSYPFTFGGGTKLEIK
notes: also called XPA.015.249
B5: Ab053 (antibody, V domains shown)
VH: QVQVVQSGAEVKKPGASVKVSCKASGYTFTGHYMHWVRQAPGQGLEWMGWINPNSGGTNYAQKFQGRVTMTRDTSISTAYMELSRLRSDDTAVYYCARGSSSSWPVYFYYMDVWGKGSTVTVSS
VL: QSALTQPRSVSESPGKTVTISCTGSGGSIGSNYVQWYQQRPGSAPTTVIFEDNRRPSGVPDRFSGSIHSSSNSASLTISGLKTEDEADYYCQSYVGTIVVFGGGTKVTVL
notes: also called XPA.015.196
B6: Ab074 (antibody, IgG2, V domains shown)
VH: EVQLVQSGAEVKKPGESLKISCKGSGYSFTSYWIGWVRQMPGKGLEWMGIIYPGDSDTRYSPSFQGQVTISADKSISTAYLQWSSLKASDTAMYYCARWDAGYSPWGQGTLVTVSS
VL: SSELTQDPAVSVALGQTVRITCQGDSLRSYYASWYQQKPGQAPVLVIYGKNNRPSGIPDRFSGSSSGNTASLTITGAQAEDEADYYCSSRDSSGDQWVFGGGTKLTVL
notes: also called XPA.015.230
B7: Ab084 (antibody, IgG2, V domains shown)
VH: QVQLVESGGGLVQPGGSLRLSCAASGFTFKNYWMTWVRQAPGKGLEWVADIKGDGSRQHYADSVKGRFTISRDNARNSLFLQMNSLRVEDTALYYCATDPPWDRDAFDLWGQGTMVTVSS
VL: AIRMTQSPSTLSASVGDRVTITCRASQSISSWLAWYQQTPGKAPKLLIYAASNLQSGVPSRFSGSGSGTDFTLTISSLQPEDFATYYCQQSYNTPLTFGGGTKVEIK
notes: also called XPA.015.250
B8: Ab085 (antibody, IgG2, V domains shown)
VH: EVQLVESGGGVVQPGRSLRLSCAASGFIFSSYGMHWVRQVPDKGLEWVAGISLRGSDNYYADSVKGRFTISRDNSKNTLYLQMNNLRPDDTAVYYCARGFRWPVTPFDHWGQGTLVTVSS
VL: QTVVTQEPSFSVSPGGTVTLTCGLTSGSVSTRNFPGWYQQTPGQTLRTLIYNTNTRSSGVPDRFSGSILGNKAALTITGAQADDESDYYCVLYMTGDIWVFGGGTKVTVLG
notes: also called XPA.015.275
B9: Ab080 (antibody, IgG2, V domains shown)
VH: EVQLVESGGGVVQPGGSLRLSCAASGFTFDDYAMHWVRQAPGKGLEWVSLISWDGGSTYYADSVKGRFTISRDNSKNSLYLQMNSLRAEDTALYYCAKARGVVIIDYWGQGTLVTVSS
VL: EIVLTQSPGTLSLSPGERATLSCRASQSLSSSFLAWYQQKPGQAPRLLIYGAGSRATGVPDRFSGSGYGTDFSLTISRLELEDFAVYYCQQYDRSQITFGQGTRLEIK
notes: also called XPA.015.246
B10: Ab076 (antibody, V domains shown)
VH: EVQLVESGGGVVQPGGSLRLSCAASGFTFDDYAMHWVRQAPGKGLEWVSLISWDGGSTYYADSVKGRFTISRDNSKNSLYLQMNSLRAEDTALYYCAKARGVVIIDYWGQGTLVTVSS
VL: EIVMTQSPATLSVSPGERATLSCRASQSISTNLAWYQQKPGQTPRLLIYGASTRATGIPARFSGSGSGTEFTLTISSLQSEDFAVYYCQQYNSEISFGQGTRLEIK
notes: also called XPA.015.241

Columns and labels:
[1] = target: T1, human insulin receptor complexed with human insulin (human, UniProt P06213 28-1382; P01308 25-54; P01308 90-110); assay: KinExA antibody depletion by hINSR8-CHOK1 cells, with 175 nM insulin
T1 construct: whole, on cells;mature; also called hINSR-hINS complex; INS/INSR complex
Method: (§1) Beads were rotated at room temperature for 6 hours then allowed to settle. Supernatant was replaced with PBS with 50 mg/mL BSA Fraction V (Sigma-Aldrich, St. Louis, Mo.) and rotated overnight at 4° C. […] On the KinExA 3000 the sample was injected at 0.25 mL/minute for 240 seconds, then rinsed for 60 seconds in running buffer (PBS with 0.05% sodium azide), then 240 seconds of the detection solution was injected, followed by a final 90 second wash at 1 mL/minute. The difference in voltage from an early initial time-point and a time point near the end of the run was measured and used to calculate affinities. The INSR concentration on the cells was estimated at 2.5×10⁵ receptors/cell. Affinity was determined using the KinExA software (Sāpidyne, Boise Id.) and EC50's were calculated by non-linear fit in Prism (GraphPad Software, La Jolla Calif.).
(§2) Samples were incubated overnight at 4° C. for 18 hours then centrifuged to pellet cells and supernatants were removed for testing on the KinExA. […] Detection solution used was R-PE-(Fab′)2 fragment goat anti-Human IgG(H+L) (Jackson Immuno Research, West Grove Pa.).

[2] = target: T2, human insulin receptor (human, UniProt P06213 28-1382); assay: KinExA antibody depletion by hINSR8-CHOK1 cells, without insulin
T2 construct: whole, on cells; Uncomplexed receptor on serum-starved cells (CHOK1 transfectants or IM-9); also called hINSR; INSR
Method: as §1, §2

[3] = target: T2, human insulin receptor; assay: cell-based or functional assay
[4] = target: T3, mouse insulin receptor (mouse, UniProt P15208 28-1372); assay: cell-based or functional assay
[5] = target: T1, human insulin receptor complexed with …; assay: KinExA, affinity with insulin against affinity without insulin
Method: as §1, §2

[6] = target: T1, human insulin receptor complexed with …; assay: FACS, CHO-K1 human INSR cells, signal with insulin divided by signal without insulin [cont'd]
Method: (§3) Twenty five microliter aliquots of cells were plated into 96 well plates, mixed with 25 ul of antibody or PPE and incubated on ice for 1 h.
(§4) The cells were then washed once with FACS buffer and the binding of the antibody was detected by the addition of 25 ul of an appropriate fluorochrome-conjugated secondary antibody. […] After a final 15 min incubation on ice the cells were washed and the pellets resuspended in FACS buffer. The cells were analyzed on a FACSCAN™ (Becton-Dickinson, Milipitas, Calif.) and the data analyzed in both FLOWJO™ (Treestar, Ashland, Oreg.) and Microsoft Excel™.

[7] = target: T3, mouse insulin receptor; assay: FACS, serum-starved CHO-K1 cells expressing mouse INSR, no insulin [cont'd]
[8] = target: T4, mouse insulin receptor complexed with human insulin (mouse; human, UniProt P15208 28-1372; P01308 25-54; P01308 90-110); assay: FACS, CHO-K1 mouse INSR cells, signal with insulin divided by signal without insulin [cont'd]
T4 construct: whole, on cells;mature; also called muINSR/hINS complex
Method: as §3, §4

[9] = target: T2, human insulin receptor; assay: FACS, serum-starved CHO-K1 cells expressing human INSR, no insulin [cont'd]
Method: as §3, §4

[10] = target: T4, mouse insulin receptor complexed with …; assay: FACS, serum-starved CHO-K1 cells expressing mouse INSR, with insulin [cont'd]
Method: as §3, §4

[11] = target: T1, human insulin receptor complexed with …; assay: FACS, serum-starved CHO-K1 cells expressing human INSR, with insulin [cont'd]
Method: as §3, §4

[12] = target: T1, human insulin receptor complexed with …; assay: FACS, CHO-K1 human INSR cells, signal with insulin divided by signal without insulin
Method: as §3, §4

[13] = target: T4, mouse insulin receptor complexed with …; assay: FACS, serum-starved CHO-K1 cells expressing mouse INSR, with insulin
[14] = target: T2, human insulin receptor; assay: FACS, serum-starved CHO-K1 cells expressing human INSR, no insulin
[15] = target: T3, mouse insulin receptor; assay: FACS, serum-starved CHO-K1 cells expressing mouse INSR, no insulin
[16] = target: T1, human insulin receptor complexed with …; assay: FACS, serum-starved CHO-K1 cells expressing human INSR, with insulin
Method: as §3, §4

[17] = target: T4, mouse insulin receptor complexed with …; assay: FACS, CHO-K1 mouse INSR cells, signal with insulin divided by signal without insulin
[18] = target: T2, human insulin receptor; assay: cell-based or functional assay; remark: listed apart in the source
[19] = target: T3, mouse insulin receptor; assay: cell-based or functional assay; remark: listed apart in the source
[20] = target: T2, human insulin receptor; assay: cell-based or functional assay; remark: listed apart in the source

| Binder | Kd [1] [nM] | Kd [2] [nM] | Fold Improvement with Insulin [5] [fold] | FACS area under log transformed data MFI ratio (+insulin/-insulin) [6] | FACS area under log transformed data MFI [7] | FACS area under log transformed data MFI ratio (+insulin/-insulin) [8] | FACS area under log transformed data MFI [9] | FACS area under log transformed data MFI [10] | FACS area under log transformed data MFI [11] | other results |
| --- | --- | --- | --- | --- | --- | --- | --- | --- | --- | --- |
| B1 | 0.08 | 0.108 | 1.4 | – | – | – | – | – | – | EC50 of pAkt activation without insulin, human INSR CHO-K1 cells [3]: 0.65 nM; relative maximum pAkt activation without insulin, human INSR CHO-K1 cells [3]: 79%; EC50 of pAkt activation without insulin, mouse INSR CHO-K1 cells [4]: 1.42 nM; relative maximum pAkt activation without insulin, mouse INSR CHO-K1 cells [4]: 42% |
| B2 | – | – | – | 0.47 | 307 | 1.05 | 729 | 321 | 341 | – |
| B3 | – | – | – | 0.51 | 425 | 1.05 | 692 | 446 | 353 | – |
| B4 | 0.376 | 7.6 | – | – | 81 | – | – | 179 | 294 | – |
| B5 | 0.096 | 0.148 | 1.5 | – | – | – | – | – | – | FACS area under log transformed data MFI ratio (+insulin/-insulin) [12]: 0.34; FACS area under log transformed data MFI [13]: 574; FACS area under log transformed data MFI [14]: 1330; EC50 of pAkt activation without insulin, human INSR CHO-K1 cells [3]: 0.42 nM; relative maximum pAkt activation without insulin, human INSR CHO-K1 cells [3]: 64%; EC50 of pAkt activation without insulin, mouse INSR CHO-K1 cells [4]: 0.69 nM; relative maximum pAkt activation without insulin, mouse INSR CHO-K1 cells [4]: 48%; FACS area under log transformed data MFI [15]: 1130; FACS area under log transformed data MFI [16]: 451; FACS area under log transformed data MFI ratio (+insulin/-insulin) [17]: 0.51 |
| B6 | – | – | – | 0.44 | 932 | 0.54 | 596 | 503 | 260 | – |
| B7 | – | – | – | 0.95 | 196 | 1.75 | 532 | 344 | 508 | – |
| B8 | 0.2 | – | – | – | – | – | – | – | – | fold-change in insulin EC50 (pAkt) relative to isotype control, 1 ug/ml Ab085, human INSR CHO-K1 cells [18]: 3 fold; fold-change in insulin EC50 (pAkt) relative to isotype control, 10 ug/ml Ab085, human INSR CHO-K1 cells [18]: 9 fold; fold-change in insulin EC50 (pAkt) relative to isotype control, 20 ug/ml Ab085, mouse INSR CHO-K1 cells [19]: 8 fold; pAKT assay, fold-decrease in insulin EC50 relative to isotype control Ab [20]: 8.9 fold |
| B9 | 0.68 | 12 | 17.6 | 1.37 | 157 | 1.22 | 282 | 191 | 386 | pAKT assay, fold-decrease in insulin EC50 relative to isotype control Ab [20]: 8.4 fold |
| B10 | – | – | – | 0.98 | 268 | 1.46 | 552 | 391 | 543 | – |
